From publication PMC6405929, “Targeted drug delivery via caveolae-associated protein PV1 improves lung fibrosis” (Communications Biology, 2019)

Molecular target: T1, Plasmalemma vesicle-associated protein (PV1), recombinant mouse (Mus musculus, UniProt Q91VC4)
T1 construct: plasmalemma vesicle-associated protein (PV1), mouse, recombinant; also called mouse PV1; recombinant mouse PV1
Assay: SPR; ProteOn XPR36; mouse PV1 amine-coupled to a GLC chip at ~200 RU; antibodies injected at 100 μl/min; 25 °C, PBS pH 7.2; 1:1 Langmuir model
Settings: both partners purified

T1 sequence (Q91VC4 whole entry): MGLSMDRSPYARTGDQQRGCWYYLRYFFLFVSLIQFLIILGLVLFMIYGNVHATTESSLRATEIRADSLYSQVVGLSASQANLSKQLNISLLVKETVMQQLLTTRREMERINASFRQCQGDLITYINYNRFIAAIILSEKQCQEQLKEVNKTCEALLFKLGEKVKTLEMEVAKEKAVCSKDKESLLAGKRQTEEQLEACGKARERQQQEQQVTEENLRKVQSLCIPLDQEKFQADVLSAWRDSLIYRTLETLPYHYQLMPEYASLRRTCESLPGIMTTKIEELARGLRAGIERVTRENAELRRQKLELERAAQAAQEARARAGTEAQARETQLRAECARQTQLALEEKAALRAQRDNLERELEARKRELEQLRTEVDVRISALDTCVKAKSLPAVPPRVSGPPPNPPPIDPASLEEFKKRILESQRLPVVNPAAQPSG

B1: αPV1 IgG (de novo sequenced Meca32 variant as a human IgG1 chimeric antibody) (antibody, V domains shown)
VH: EVQLVESGGGLVQPGRSMKLSCAASGFTFSDYYMAWVRQAPKKGLEWVASISYEGNKTYYGDSVKGRFTISRDNAKSILYLQMNSLKSEDTATYYCARQSYSSYLFDYWGQGVM
VL: DIQMTQTPSSMSASLGERVTLSCGTSQGVNLFLNWYQQKPDGTIKPLIFFTSHLQSGVPSRFSGSGSGTAYSLTISSLEPEDFAVYYCQQYDSSPPTFGGGTKLYLK
notes: human IgG1 heavy-chain constant region (chimeric antibody); VL of the chosen Meca32 variant; light-chain constant region; Human IgG1 chimera of rat variable domains; also called anti-PV1 antibody; αPV1 mAb; source: HEK293F, transient, purified (protein A; SEC if necessary)
Kd: 500 pM
